B1: CPEB3 Ribozyme (parent)
chain: GGGGGCCACAGCAGAAGCGUUCACGUCGCGGCCCCUGUCAGAUUCUGGUGAAUCUGCGAAUUCUGCUGU

The variants in the series derive from B1. Briefly: self-cleavage, relative activity (ratio to wild type); higher = more cleavage; co-transcriptional.
For GGGGGCCACAGCAGAGGCGUUCACGUCGCGGCACCUGUCAGAUUCUGGUGAAUCUGCGAAUUCUGCUGU [A16G C33A], the self-cleavage amounted to 0.795.

Turning to GGGGGCCACAGCAGAGGCGUUCACGUCGCGGCCCCUGUCAGAUUCUGGUAAAUCUGCGAAUUCUGCUGU [A16G G50A], the self-cleavage was 0.915.

With GGGGGCCACAGCAGAGGCGUUCACGUCGCGGCCCCUGUCAGAUUCUGGUCAAUCUGCGAAUUCUGCUGU [A16G G50C], the self-cleavage turned out to be 0.896.

On to GGGGGCCACAGCAGAGGCGUUCACGUCGCGGCCCCUGUCAGAUUCUGGUGAAUCUGCGAAUGCUGCUGU [A16G U62G], for which the self-cleavage was 0.593.

Turning to GGGGGCCACAGCAGAGGCGUUCAGGUCGCGGCCCCUGUCAGAUUCUGGUGAAUCUGCGAAUUCUGCUGU [A16G C24G], the self-cleavage worked out at 0.385.

As to GGGGGCCACAGCAGAGGCGUUCAUGUCGCGGCCCCUGUCAGAUUCUGGUGAAUCUGCGAAUUCUGCUGU [A16G C24U], the self-cleavage was 0.68.

Consider GGGGGCCACAGCAGAGGCGUUCAAGUCGCGGCCCCUGUCAGAUUCUGGUGAAUCUGCGAAUUCUGCUGU [A16G C24A], for which the self-cleavage was 0.481.

In the case of GGGGGCCACAGCAGAUGCGUUCACGUCGCGGCCCCUGUCCGAUUCUGGUGAAUCUGCGAAUUCUGCUGU [A16U A40C], the self-cleavage amounted to 0.267.

Consider GGGGGCCACAGCAGAUGCGUUCACGUCGCGGCCCCUGUCUGAUUCUGGUGAAUCUGCGAAUUCUGCUGU [A16U A40U], for which the self-cleavage came to 0.415.

In the case of GGGGGCCACAGCAGAGGCGUUCACGUCGCGGCCCCUGUCAGAUUCUGGUGAAUCUGCGAAUUCUACUGU [A16G G65A], the self-cleavage amounted to 0.622.

With GGGGGCCACAGCAGAGGCGUUCACGUCGCGGCCCCUGUCAGAUUCUGGUGAAUCUGCGAAUUCUUCUGU [A16G G65U], the self-cleavage turned out to be 0.571.

For GGGGGCCACAGCAGAGGCGUUCACGUCGCGGCCCCUGUCAAAUUCUGGUGAAUCUGCGAAUUCUGCUGU [A16G G41A], the self-cleavage came out at 0.404.

As for GGGGGCCACAGCAGAGGCGUUCACGUCGCGGCCCCUGUCAGAUUCUGGUGAAUCUGCGUAUUCUGCUGU [A16G A59U], the self-cleavage turned out to be 0.535.

Turning to GGGGGCCACAGCAGAGGCGUUCACGUCGCGGCCCCUGUCAGAUUCUGGUGUAUCUGCGAAUUCUGCUGU [A16G A51U], the self-cleavage worked out at 0.914.

Take GGGGGCCACAGCAGAGGCGUUAACGUCGCGGCCCCUGUCAGAUUCUGGUGAAUCUGCGAAUUCUGCUGU [A16G C22A]: the self-cleavage was 0.167.

As for GGGGGCCACAGCAGAGGCGUUUACGUCGCGGCCCCUGUCAGAUUCUGGUGAAUCUGCGAAUUCUGCUGU [A16G C22U], the self-cleavage worked out at 0.156.

Consider GGGGGCCACAGCAGAGGCGUUCACGUCGCGGCCCCAGUCAGAUUCUGGUGAAUCUGCGAAUUCUGCUGU [A16G U36A], for which the self-cleavage is 0.179.

With GGGGGCCACAGCAGAGGCGUUCACGUCGCGGCCCCGGUCAGAUUCUGGUGAAUCUGCGAAUUCUGCUGU [A16G U36G], the self-cleavage was 0.259.

Take GGGGGCCACAGCAGAGGCGUUCACGUCGCGGCCCCUGUCAGAUUCUGGUGACUCUGCGAAUUCUGCUGU [A16G A52C]: the self-cleavage came to 0.927.

As for GGGGGCCACAGCAGAGGCGUUCACGUCGCGGCCCCUGUCAGAUUCUGGUGAAUCUUCGAAUUCUGCUGU [A16G G56U], the self-cleavage was determined as 0.634.

With GGGGGCCACAGCAGAGGCGUUCACGUCGCGGCCCCUGUCGGAUUCUGGUGAAUCUGCGAAUUCUGCUGU [A16G A40G], the self-cleavage stood at 0.788.

With GGGGGCCACAGCAGAUGCGUUCCCGUCGCGGCCCCUGUCAGAUUCUGGUGAAUCUGCGAAUUCUGCUGU [A16U A23C], the self-cleavage stood at 0.701.

As to GGGGGCCACAGCAGAGGCGUUCACGUCGCGGCCCCUGUCAGUUUCUGGUGAAUCUGCGAAUUCUGCUGU [A16G A42U], the self-cleavage was 0.83.

Turning to GGGGGCCACAGCAGAGGCGUUCACGUCGCGGCCCCUGUCAGGUUCUGGUGAAUCUGCGAAUUCUGCUGU [A16G A42G], the self-cleavage was found to be 0.855.

As to GGGGGCCACAGCAGAGGCGUUCACGUCGCGGACCCUGUCAGAUUCUGGUGAAUCUGCGAAUUCUGCUGU [A16G C32A], the self-cleavage is 0.607.

Consider GGGGGCCACAGCAGAGGCGUUCACGUCGCGGGCCCUGUCAGAUUCUGGUGAAUCUGCGAAUUCUGCUGU [A16G C32G], for which the self-cleavage was determined as 0.125.

GGGGGCCACAGCAGAGGCGUUCACGUCGCGGCCCCUGUCAGAGUCUGGUGAAUCUGCGAAUUCUGCUGU [A16G U43G]: the self-cleavage is 0.708.

In the case of GGGGGCCACAGCAGAUGCGUUCACGUCGCGGCCCCUGUCAGAUUCUGGUGACUCUGCGAAUUCUGCUGU [A16U A52C], the self-cleavage amounted to 0.856.

For the variant GGGGGCCACAGCAGAUGCGUUCACGUCGCGGCCCCUGUCAGAUUCUGGUGAUUCUGCGAAUUCUGCUGU [A16U A52U], the self-cleavage is 0.801.

Regarding GGGGGCCACAGCAGAGGCGUACACGUCGCGGCCCCUGUCAGAUUCUGGUGAAUCUGCGAAUUCUGCUGU [A16G U21A], the self-cleavage was found to be 0.92.

For GGGGGCCACAGCAGAGGCGUUCACGUCGCGGCCCCUGUCAGAUUCUGGUGAAUCUGCGAGUUCUGCUGU [A16G A60G], the self-cleavage turned out to be 0.663.

As for GGGGGCCACAGCAGAGGCGUUCACGUCGCGGCCCCUGUCAGAUCCUGGUGAAUCUGCGAAUUCUGCUGU [A16G U44C], the self-cleavage stood at 0.734.

For GGGGGCCACAGCAGAGGCGUUCACGUCGCGGCCCCUGUCAGAUGCUGGUGAAUCUGCGAAUUCUGCUGU [A16G U44G], the self-cleavage was found to be 0.84.

Take GGGGGCCACAGCAGAUGCGUUCACGUCGCGGCCCCUGUCAGAUUCUGGUGAAUCUGCGGAUUCUGCUGU [A16U A59G]: the self-cleavage worked out at 0.909.

Consider GGGGGCCACAGCAGAUGCGUUCACGUCGCGGCCCCUGUCAGAUUCUGGUGAAUCUGCGCAUUCUGCUGU [A16U A59C], for which the self-cleavage was 0.427.

Regarding GGGGGCCACAGCAGACGCGUUCACGUCGCGGCCCCUGUCAGAUUCUGGUGAAUCUGCGAAUUCUGCUGC [A16C U69C], the self-cleavage amounted to 0.82.

Consider GGGGGCCACAGCAGAGGCGUUCACGUCGCGGCCCCUGUCAGAUUCUGGUGAAGCUGCGAAUUCUGCUGU [A16G U53G], for which the self-cleavage was determined as 0.784.

As for GGGGGCCACAGCAGAGGCGUUCACGUCGCGGCCCCUGUCAGAUUCUGGUGAAACUGCGAAUUCUGCUGU [A16G U53A], the self-cleavage is 0.752.

Take GGGGGCCACAGCAGAGGCGUUCACGUCGCGGCCCCUAUCAGAUUCUGGUGAAUCUGCGAAUUCUGCUGU [A16G G37A]: the self-cleavage stood at 0.13.

The values above are taken from the RNAGym collection of RNA variant scans (doi:10.7554/elife.80360).
